From US6342220 (Genentech, dated 2002) come the findings set out here.

The target of this assay is T1, mpl-Ig (human, UniProt P40238 26-491, limits assumed).
T1 construct: From conditioned media of mpl-Ig-transfected 293 cells; also called mpl-IgG; not shown: human IgG Fc (the fusion is captured with rabbit anti-human IgG Fc)
T1 sequence (looked up): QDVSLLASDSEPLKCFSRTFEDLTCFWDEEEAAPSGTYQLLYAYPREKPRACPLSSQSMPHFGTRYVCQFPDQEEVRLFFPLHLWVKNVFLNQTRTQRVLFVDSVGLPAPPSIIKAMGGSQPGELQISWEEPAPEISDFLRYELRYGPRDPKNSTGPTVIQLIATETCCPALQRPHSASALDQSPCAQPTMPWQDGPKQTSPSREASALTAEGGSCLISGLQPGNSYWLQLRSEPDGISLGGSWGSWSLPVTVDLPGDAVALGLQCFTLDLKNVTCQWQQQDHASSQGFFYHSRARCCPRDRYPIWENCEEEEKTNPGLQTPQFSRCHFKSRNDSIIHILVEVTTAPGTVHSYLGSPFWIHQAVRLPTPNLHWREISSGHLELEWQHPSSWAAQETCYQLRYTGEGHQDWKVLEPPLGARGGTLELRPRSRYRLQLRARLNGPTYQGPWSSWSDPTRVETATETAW
In words: competition ELISA, biotinylated TPO on captured mpl-Ig. (In general: ELISA stands for enzyme-linked immunosorbent assay.)

B1: 12E10 Fab′2 (other)
VH: QVQLQQSGPGLVKPSETLSLTCTVSGDSISSYYWSWIRQPPGKGLEWIGYIYYSGSTNYNPSLKSRVTISVDTSKSQFSLKLSSVTAADTAVYYCARGRYFDVWGRGTMVTVSS
VL: SYVLTQPPSVSGSPGQSITISCTGTSSDVGGYNYVSWYQQHPGKAPKLMIYEGSKRPSGVSNRFSGSKSGNTASLTISGLQAEDEADYYCSSYTTRSTRVFGGGTKLTVL
notes: F(ab′)2 with leucine zipper; A lambda version of the Fab′2 vector is not described; copies: 2 + 2
As a reminder, the IC50 is the concentration needed to halve the response being measured. Read a low IC50 as higher potency. For B1, the IC50 worked out at 0.64 nM.
